This note sets out measurements from publication PMC4175358, “Conformational Analysis of the Streptococcus pneumoniae Hyaluronate Lyase and Characterization of Its Hyaluronan-specific Carbohydrate-binding Module*^([image sbox.jpg])” (The Journal of Biological Chemistry, 2014).

The term Kd denotes the constant that tells how readily two partners part at equilibrium. As usually defined, the stoichiometry N is the number of molecules, sites or subunits per partner or assembly.

Series [1] concerns the target T1, SpCBM70 (Streptococcus pneumoniae, UniProt Q54873).
T1 construct: gene SP_0314; N-terminal CBM70 module, Lys53-Ser212, N-terminal His6 tag with thrombin site (pET28), recombinant in E. coli; ITC construct; 4D0Q is the C-terminally His6-tagged Asn54-Ser212 form, unliganded
Briefly: isothermal titration calorimetry. Format: binding. The settings on record: 25 °C, 25 mM Tris-HCl pH 7.5, 50 mM NaCl; too weak to quantify. From the text:
isothermal titration calorimetry on SpCBM70

Series [2] concerns the molecule itself. Description: small angle X-ray scattering; 50 mM Tris-HCl pH 8.0, 500 mM NaCl, 288 K, Hyl 1.0-10.8 mg/ml; monomer/dimer mixture modelled with SASREF7MX (P2 symmetry, 30 runs each at 1.0-2.7 mg/ml) and OLIGOMER; Kd = [monomer]^2/[dimer], dimer to monomers.
Series [3] concerns the molecule itself. Description: dynamic light scattering; 25 °C, triplicate, 15 acquisitions of 5 s, after size exclusion chromatography and 0.22 µm filter; Hyl 1.0-10.8 mg/ml, PL8 1.4-10.9 mg/ml; associated fraction from expected radii of a globular monomer and dimer; Kd = [monomer]^2/[dimer], dimer to monomers. In general terms: Size exclusion chromatography separates by hydrodynamic size, large species first.

With Hyaluronan 4-mer, in series [1], the Ka is > 5 × 10^3.

B1: Streptococcus pneumoniae hyaluronate lyase, construct with the CBM, middle (linker) and PL8 domains (residues Lys53-Lys1006) (enzyme)
chain: KNLVENGDFGQTEDGSSPWTGSKAQGWSAWVDQKNSADASTRVIEAKDGAITISSHEKLRAALHRMVPIEAKKKYKLRFKIKTDNKIGIAKVRIIEESGKDKRLWNSATTSGTKDWQTIEADYSPTLDVDKIKLELFYETGTGTVSFKDIELVEVADQLSEDSQTDKQLEEKIDLPIGKKHVFSLADYTYKVENPDVASVKNGILEPLKEGTTNVIVSKDGKEVKKIPLKILASVKDAYTDRLDDWNGIIAGNQYYDSKNEQMAKLNQELEGKVADSLSSISSQADRTYLWEKFSNYKTSANLTATYRKLEEMAKQVTNPSSRYYQDETVVRTVRDSMEWMHKHVYNSEKSIVGNWWDYEIGTPRAINNTLSLMKEYFSDEEIKKYTDVIEKFVPDPEHFRKTTDNPFKALGGNLVDMGRVKVIAGLLRKDDQEISSTIRSIEQVFKLVDQGEGFYQDGSYIDHTNVAYTGAYGNVLIDGLSQLLPVIQKTKNPIDKDKMQTMYHWIDKSFAPLLVNGELMDMSRGRSISRANSEGHVAAVEVLRGIHRIADMSEGETKQCLQSLVKTIVQSDSYYDVFKNLKTYKDISLMQSLLSDAGVASVPRPSYLSAFNKMDKTAMYNAEKGFGFGLSLFSSRTLNYEHMNKENKRGWYTSDGMFYLYNGDLSHYSDGYWPTVNPYKMPGTTETDAKRADSDTGKVLPSAFVGTSKLDDANATATMDFTNWNQTLTAHKSWFMLKDKIAFLGSNIQNTSTDTAATTIDQRKLESGNPYKVYVNDKEASLTEQEKDYPETQSVFLESFDSKKNIGYFFFKKSSISMSKALQKGAWKDINEGQSDKEVENEFLTISQAHKQNRDSYGYMLIPNVDRATFNQMIKELESSLIENNETLQSVYDAKQGVWGIVKYDDSVSTISNQFQVLKRGVYTIRKEGDEYKIAYYNPETQESAPDQEVFKK
notes: Hyaluronate lyase (Hyl) of Streptococcus pneumoniae, a 1066-amino acid protein; residues Lys53-Lys1006, amplified from genomic DNA; lacks the N-terminal secretion signal peptide and the C-terminal cell-wall anchoring motif; the results section prints 53-1007; The His6 tag is joined by a thrombin cleavage site; Theoretical mass printed as 110.6 kDa; In solution a monomer/dimer mixture; also called …
B1: the dissociation constant (Kd) in series [2] was about 43 µM; in series [3], about 37 µM. Besides, in series [2], the “stoichiometry N” value worked out at 2.

B2: PL8 catalytic domain of Streptococcus pneumoniae hyaluronate lyase (residues Lys288-Gln1009) (domain or fragment)
chain: KDAYTDRLDDWNGIIAGNQYYDSKNEQMAKLNQELEGKVADSLSSISSQADRTYLWEKFSNYKTSANLTATYRKLEEMAKQVTNPSSRYYQDETVVRTVRDSMEWMHKHVYNSEKSIVGNWWDYEIGTPRAINNTLSLMKEYFSDEEIKKYTDVIEKFVPDPEHFRKTTDNPFKALGGNLVDMGRVKVIAGLLRKDDQEISSTIRSIEQVFKLVDQGEGFYQDGSYIDHTNVAYTGAYGNVLIDGLSQLLPVIQKTKNPIDKDKMQTMYHWIDKSFAPLLVNGELMDMSRGRSISRANSEGHVAAVEVLRGIHRIADMSEGETKQCLQSLVKTIVQSDSYYDVFKNLKTYKDISLMQSLLSDAGVASVPRPSYLSAFNKMDKTAMYNAEKGFGFGLSLFSSRTLNYEHMNKENKRGWYTSDGMFYLYNGDLSHYSDGYWPTVNPYKMPGTTETDAKRADSDTGKVLPSAFVGTSKLDDANATATMDFTNWNQTLTAHKSWFMLKDKIAFLGSNIQNTSTDTAATTIDQRKLESGNPYKVYVNDKEASLTEQEKDYPETQSVFLESFDSKKNIGYFFFKKSSISMSKALQKGAWKDINEGQSDKEVENEFLTISQAHKQNRDSYGYMLIPNVDRATFNQMIKELESSLIENNETLQSVYDAKQGVWGIVKYDDSVSTISNQFQVLKRGVYTIRKEGDEYKIAYYNPETQESAPDQEVFKKLEQ
notes: Hyaluronate lyase (Hyl) of Streptococcus pneumoniae, PL8 catalytic domain, residues Lys288-Gln1009; The His6 tag is joined by a thrombin cleavage site; Expected mass printed as 82 kDa; also called PL8 domain; isolated PL8 domain; source: recombinant, pET28, autoinduction culture
For the molecule B2, in series [3], the Kd was about 180 µM and the “stoichiometry N” value is 2.
